Measurements as given in US20260209362A1 (VIB VZW, published 2026).
Numbering of substitutions follows the chain as printed. One block for each binder: values may come before it.

How the values were obtained:
[1] = target: T1, mouse IL-12Rβ2 expressed on cells (mouse, UniProt P97378 24-874); experiment: flow cytometry, P.E. VHH on HEK293T cells stably expressing mIL-12RB2
T1 construct: HEK293T cells, stably transduced (cDNA NM_008354); also called mIL-12RB2
T1 sequence: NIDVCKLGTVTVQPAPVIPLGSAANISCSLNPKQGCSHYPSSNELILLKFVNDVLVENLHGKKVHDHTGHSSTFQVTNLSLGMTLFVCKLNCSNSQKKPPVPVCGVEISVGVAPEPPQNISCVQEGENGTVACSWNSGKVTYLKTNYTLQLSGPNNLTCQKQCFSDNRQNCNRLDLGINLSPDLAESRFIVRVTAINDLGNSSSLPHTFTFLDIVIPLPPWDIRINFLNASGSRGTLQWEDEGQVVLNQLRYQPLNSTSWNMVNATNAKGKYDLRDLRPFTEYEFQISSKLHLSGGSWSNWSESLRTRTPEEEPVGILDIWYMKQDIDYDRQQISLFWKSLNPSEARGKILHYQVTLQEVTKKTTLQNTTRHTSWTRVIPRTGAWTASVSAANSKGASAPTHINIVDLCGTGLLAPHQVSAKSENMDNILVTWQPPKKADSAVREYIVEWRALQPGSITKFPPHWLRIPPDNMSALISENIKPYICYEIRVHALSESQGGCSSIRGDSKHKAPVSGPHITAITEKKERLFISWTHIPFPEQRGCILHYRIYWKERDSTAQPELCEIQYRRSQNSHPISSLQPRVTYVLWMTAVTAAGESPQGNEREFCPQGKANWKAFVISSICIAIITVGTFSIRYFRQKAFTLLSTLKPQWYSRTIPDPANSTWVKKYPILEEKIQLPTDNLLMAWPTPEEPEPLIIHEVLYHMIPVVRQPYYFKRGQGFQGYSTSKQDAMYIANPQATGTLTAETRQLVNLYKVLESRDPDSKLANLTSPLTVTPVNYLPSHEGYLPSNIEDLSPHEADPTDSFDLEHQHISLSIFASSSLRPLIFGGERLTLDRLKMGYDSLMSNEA

[2] = target: T2, biotinylated recombinant human IL-12Rβ2 (human, UniProt Q99665 24-622, random biotinylated); experiment: ELISA, periplasmic extract on biotinylated hIL-12Rβ2, signal over control wells
T2 construct: Recombinant protein produced in-house, biotinylated; also called hIL-12RB2; human IL-12RB2
T2 sequence: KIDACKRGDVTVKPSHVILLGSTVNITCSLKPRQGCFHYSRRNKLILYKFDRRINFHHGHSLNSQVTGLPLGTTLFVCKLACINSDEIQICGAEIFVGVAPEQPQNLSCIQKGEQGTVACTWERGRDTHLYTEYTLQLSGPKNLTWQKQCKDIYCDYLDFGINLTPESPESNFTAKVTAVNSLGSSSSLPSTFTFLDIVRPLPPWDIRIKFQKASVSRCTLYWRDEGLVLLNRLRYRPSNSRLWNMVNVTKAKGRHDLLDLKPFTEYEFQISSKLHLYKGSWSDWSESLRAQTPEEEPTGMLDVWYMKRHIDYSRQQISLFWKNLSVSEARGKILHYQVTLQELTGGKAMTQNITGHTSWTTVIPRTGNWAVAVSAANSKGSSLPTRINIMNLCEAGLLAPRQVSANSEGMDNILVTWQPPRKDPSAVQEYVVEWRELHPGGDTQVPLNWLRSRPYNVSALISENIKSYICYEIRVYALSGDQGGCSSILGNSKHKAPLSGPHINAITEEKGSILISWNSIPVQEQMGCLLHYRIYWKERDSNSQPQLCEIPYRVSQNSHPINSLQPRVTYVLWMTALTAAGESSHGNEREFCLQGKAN

[3] = target: T3, biotinylated recombinant mouse IL-12Rβ2 (mouse, UniProt P97378 24-637, random biotinylated); experiment: ELISA, periplasmic extract on biotinylated mIL-12Rβ2, signal over control wells
T3 construct: Recombinant protein produced in-house, biotinylated; also called mIL-12RB2; mouse IL-12RB2
T3 sequence: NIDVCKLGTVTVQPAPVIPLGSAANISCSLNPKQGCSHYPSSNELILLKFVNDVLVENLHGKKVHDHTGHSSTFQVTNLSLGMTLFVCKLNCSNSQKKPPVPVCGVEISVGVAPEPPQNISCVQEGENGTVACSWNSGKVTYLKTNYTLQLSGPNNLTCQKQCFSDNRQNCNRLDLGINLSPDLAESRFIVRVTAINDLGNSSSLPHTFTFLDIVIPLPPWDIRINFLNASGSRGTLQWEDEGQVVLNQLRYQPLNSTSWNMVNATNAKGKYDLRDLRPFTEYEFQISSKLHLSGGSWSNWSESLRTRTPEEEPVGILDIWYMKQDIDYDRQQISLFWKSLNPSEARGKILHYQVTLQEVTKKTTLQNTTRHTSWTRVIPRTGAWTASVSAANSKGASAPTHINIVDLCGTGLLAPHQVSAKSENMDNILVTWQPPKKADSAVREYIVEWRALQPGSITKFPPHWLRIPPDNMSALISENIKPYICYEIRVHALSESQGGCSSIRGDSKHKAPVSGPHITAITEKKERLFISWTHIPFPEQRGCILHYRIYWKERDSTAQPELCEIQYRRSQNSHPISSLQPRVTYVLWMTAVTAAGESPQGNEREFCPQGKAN

% cells bound [1]: 24.9%
dMFI [1]: 122
B1: anti-IL-12Rβ2 VHH clone 2CRM83 (VHH, not shown: small tags and cut ends)
VHH: QVQLQESGGGLVQPGGSLRLSCAASGFTFSAYAMSWVRQAPGKGLEWVSSISSTGTNPNYADSVKGRFTISRDNAKNTLYLQMNSLKPEDTAVYYCAEAYRNYSPPGQGTQVTVSS
notes: tested as periplasmic extract; also called 20451

% cells bound [1]: 14.8%
dMFI [1]: 93
B2: anti-IL-12Rβ2 VHH clone 2CAM88 (VHH, not shown: small tags and cut ends)
VHH: QVQLQESGGGLVPPGDSLRLSCAASGRTFSSYTMGWFRQAPGKEREFVARISQDGGSTYYADSMKGRFTVARDNAKNTVYLQMNSLKPEDTAVYYCAADMIKWGLRVGVDSFKYWGQGTQVTVSS
notes: tested as periplasmic extract

ELISA binding hIL-12RB2/control [2]: 0.971 ratio
ELISA binding mIL-12RB2/control [3]: 36.3 ratio
B3: anti-IL-12Rβ2 VHH clone 20473 (VHH, not shown: small tags and cut ends)
VHH: B2 VHH with P13Q, P14A
notes: tested as periplasmic extract; also called 2CAM14

% cells bound [1]: 48.7%
dMFI [1]: 255
B4: anti-IL-12Rβ2 VHH clone 2CAM39 (VHH, not shown: small tags and cut ends)
VHH: QVQLQESGGGLVQAGGSLRLSCAASGRTFSTYAMGWFRQAPGKEREFVAAISWSGGSTYYADSVKGRFTISRDNAKNTGYLQMNSLKPEDTAVYVCAADAEDPILYGSSWNNRRKEYDYWGQGTQVTVSS
notes: tested as periplasmic extract; also called 20482

% cells bound [1]: 58.3%
dMFI [1]: 322
B5: anti-IL-12Rβ2 VHH clone 2CAM71 (VHH, not shown: small tags and cut ends)
VHH: QVQLQESGGGLVQAGGSLRLSCAASGRTLSNSVMGWFRQAPGKEREFVAALMWSAGSEFYTDSVKGRFSISGDGAKNTVYLQMNSLKAEDTAVYYCAAKNPPHRWSDIGKSPHYEYWGQGTQVTVSS
notes: tested as periplasmic extract

% cells bound [1]: 2.93%
dMFI [1]: 22
B6: anti-IL-12Rβ2 VHH clone 2CRM42 (VHH, not shown: small tags and cut ends)
VHH: QVQLQESGGGLVQPGESLRLSCQASGRTFSNYRMGWFRQAPGKEREFVAGINWDGGHTYYTDSVKGRFTISRDNAKNTVYLQMNSLKPEDTAVYQCAVRVREYGSSRYEDQFDYWGQGTQVTVSS
notes: tested as periplasmic extract; also called 20449

% cells bound [1]: 19.5%
dMFI [1]: 100
B7: anti-IL-12Rβ2 VHH clone 2CRM28 (VHH, not shown: small tags and cut ends)
VHH: QVQLQESGGGLVQPGGSLRLSCAASGRAWNEYNMGWFRQAPGKEREFVALIWWSSGNTYYADSVKGRFTISRDKVKNTVYLQMNSLKPEDTAVYYCAAGPTFNKYEYWGQGTQVTVSS
notes: tested as periplasmic extract

% cells bound [1]: 3.19%
dMFI [1]: 13.6
B8: anti-IL-12Rβ2 VHH clone 2CAM18 (VHH)
VHH: QVQLQESGGGLVQVGDSLKLSCVASGTTFSTHVMAWYRQAPGKQREWVASIDSAGTTNYKDAVKGRFTISRDNVKRTVYLQMNNLKPEDSAVYLCSIPSRNAWGQGTQVTVSS
notes: tested as periplasmic extract; also called 20475

% cells bound [1]: 13.5%
dMFI [1]: 90
B9: anti-IL-12Rβ2 VHH clone 2CAM67 (VHH, not shown: small tags and cut ends)
VHH: QVQLQESGGGEVQAGGSLRLSCVASGRTFSVYTTGWFRQAPGKEREFVAGMSGTRTYYADSVKGRFTISRDNAKNTVYLQMNSLKPDDTAVYYCAERRYGGPSLVWDEYDYRGQGTQVTVSS
notes: tested as periplasmic extract; also called 20494

% cells bound [1]: 18.3%
dMFI [1]: 110
B10: anti-IL-12Rβ2 VHH clone 3CRM45 (VHH, not shown: small tags and cut ends)
VHH: QVQLQESGGGLVQAGGSLRLSCTASGSIFAIDDMYWYRQAPGKEREFVAYITATNSANYLDSVNGRFTISRDNAKNSVYLQMNSLKPEDTAVYYCNAKQIVGFQIDEYWGQGTQVTVSS
notes: tested as periplasmic extract; also called 20458

ELISA binding hIL-12RB2/control [2]: 1.02 ratio
ELISA binding mIL-12RB2/control [3]: 20.9 ratio
B11: anti-IL-12Rβ2 VHH clone 20477 (VHH, not shown: small tags and cut ends)
VHH: QVQLQESGGGLVQAGGSLRLSCAPSGRTFSTYAMGWFRQALGKEREVVATISWSGGRIYYTDSVKGRFTISRDNAKNTAYLQMNSLRPDDTAVYYCAARGTDYGAWEYWGQGTQVTVSS
notes: tested as periplasmic extract; also called 2CAM27

ELISA binding hIL-12RB2/control [2]: 0.97 ratio
ELISA binding mIL-12RB2/control [3]: 19.9 ratio
B12: anti-IL-12Rβ2 VHH clone 20506 (VHH, not shown: small tags and cut ends)
VHH: B11 VHH with A14V, T91A, A92D, A98T
notes: tested as periplasmic extract; also called 3CAM6

ELISA binding hIL-12RB2/control [2]: 0.973 ratio
ELISA binding mIL-12RB2/control [3]: 6.85 ratio
B13: anti-IL-12Rβ2 VHH clone 20486 (VHH, not shown: small tags and cut ends)
VHH: QVQLQESGGGLVQAGGSLRLSCAPSGRTFSTLAMAWFRQAPGKEREVVATISWSGGRTYYADSVKGRFTISRDNAKNTAFLQMNSLRPDDTAVYYCAARESDYGSYDYWGQGTQVTVSS
notes: tested as periplasmic extract; also called 2CAM46

ELISA binding hIL-12RB2/control [2]: 1.06 ratio
ELISA binding mIL-12RB2/control [3]: 9.41 ratio
B14: anti-IL-12Rβ2 VHH clone 20555 (VHH, not shown: small tags and cut ends)
VHH: B13 VHH with A35G, D73N, F80Y, S85N, S101T, S105A
notes: tested as periplasmic extract; also called 3CAMS81

ELISA binding hIL-12RB2/control [2]: 0.995 ratio
ELISA binding mIL-12RB2/control [3]: 7.88 ratio
B15: anti-IL-12Rβ2 VHH clone 20489 (VHH, not shown: small tags and cut ends)
VHH: B13 VHH with A14P, S17P
notes: tested as periplasmic extract; also called 2CAM50

ELISA binding hIL-12RB2/control [2]: 1.31 ratio
ELISA binding mIL-12RB2/control [3]: 47.4 ratio
B16: anti-IL-12Rβ2 VHH clone 20512 (VHH, not shown: small tags and cut ends)
VHH: B13 VHH with A23T, A35G, D62S, G66S, F80Y, E100G, S101T, S105A
notes: tested as periplasmic extract; also called 3CAM57

% cells bound [1]: 6.74%
dMFI [1]: 51
B17: anti-IL-12Rβ2 VHH clone 3CRM95 (VHH, not shown: small tags and cut ends)
VHH: QVQLQESGGGLVQAGDFLRLSCVFSGGTFGDYSMGWFRQAPGKEREFVAAIRWSGDSTQYAEAVKGRFTISRDNAKSTVYLQMSSLKPEDTAVYYCAADPSYYIGPNHTPSRYRDWGQGTQVTVSS
notes: tested as periplasmic extract; also called 20465

% cells bound [1]: 6.77%
dMFI [1]: 51
B18: anti-IL-12Rβ2 VHH clone 2CAM45 (VHH, not shown: small tags and cut ends)
VHH: QVQLQESGGGLVQAGGSLRLSCAASGFTFDDYAIGWFRQAPGKEREGISCISSSDYGTYYAGSVKGRFTISSDNAKNTVYLQMNSLKPEDTAVYYCAAEAISEYDCLGINYGMDYWGKGTQVTVSS
notes: tested as periplasmic extract; also called 20485

% cells bound [1]: 11.2%
dMFI [1]: 70
B19: anti-IL-12Rβ2 VHH clone 2CAM62 (VHH, not shown: small tags and cut ends)
VHH: QVQLQESGGGLVQAEGSLRLSCVASGRTFSSYGMGWFRQAPGKEREFVTGISSAGSWIGDITSYADSVKGRFTISRDNAKNILYLQMNSLKPEDTAVYYCAAAYHGSRYYVGSTANEYTTWGQGTQVTVSS
notes: tested as periplasmic extract; also called 20493

% cells bound [1]: 32.8%
dMFI [1]: 166
B20: anti-IL-12Rβ2 VHH clone 2CRM40 (VHH, not shown: small tags and cut ends)
VHH: QVQLQESGGGLVQTGGSLRLSCAASGRTYAMAWFRQAPGKEREFAAVIIGGDRTYYANSVKDRFTISRDNAKETVYLQMNNLKPEDTAVYYCAANRRLYNSGRGYSQSEYEYWGQGTQVTVSS
notes: tested as periplasmic extract; also called 20448

% cells bound [1]: 3.47%
dMFI [1]: 21
B21: anti-IL-12Rβ2 VHH clone 3CRH83 (VHH, not shown: small tags and cut ends)
VHH: QVQLQESGGGLVQAGGSLKLSCAASGNTFSINAMAWYRQAPGQELELVAAISDVGNTIYADSMKGRFTISRGNADNTVYLQMNSLKPEDTATYYCNAGTFYTSPGDSYYRGYDFWGQGTQVTVSS
notes: tested as periplasmic extract
